The record followed here is publication doi:10.1101/2021.12.01.470822 (bioRxiv, 2021).

Sequences and labels used below:
T1: RD-ABD1 of PLS2 (human, UniProt P13796 1-375)
T1 sequence: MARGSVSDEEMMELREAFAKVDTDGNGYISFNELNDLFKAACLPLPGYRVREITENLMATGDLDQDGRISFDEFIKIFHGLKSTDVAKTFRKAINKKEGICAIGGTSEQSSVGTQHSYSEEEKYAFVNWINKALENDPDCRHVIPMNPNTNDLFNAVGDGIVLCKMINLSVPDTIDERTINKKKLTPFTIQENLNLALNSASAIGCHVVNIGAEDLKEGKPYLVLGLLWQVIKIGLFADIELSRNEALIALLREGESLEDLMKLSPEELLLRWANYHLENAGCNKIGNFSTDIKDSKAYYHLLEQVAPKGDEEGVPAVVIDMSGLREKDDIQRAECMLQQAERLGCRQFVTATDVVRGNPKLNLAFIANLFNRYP

B1: ABD1 of PLS2 (domain or fragment)
chain: EGICAIGGTSEQSSVGTQHSYSEEEKYAFVNWINKALENDPDCRHVIPMNPNTNDLFNAVGDGIVLCKMINLSVPDTIDERTINKKKLTPFTIQENLNLALNSASAIGCHVVNIGAEDLKEGKPYLVLGLLWQVIKIGLFADIELSRNEALIALLREGESLEDLMKLSPEELLLRWANYHLENAGCNKIGNFSTDIKDSKAYYHLLEQVAPKGDEEGVPAVVIDMSGLREKDDIQRAECMLQQAERLGCRQFVTATDVVRGNPKLNLAFIANLFNRYP
B2: full-length PLS2 (plastin 2), wild type (natural protein)
chain: MARGSVSDEEMMELREAFAKVDTDGNGYISFNELNDLFKAACLPLPGYRVREITENLMATGDLDQDGRISFDEFIKIFHGLKSTDVAKTFRKAINKKEGICAIGGTSEQSSVGTQHSYSEEEKYAFVNWINKALENDPDCRHVIPMNPNTNDLFNAVGDGIVLCKMINLSVPDTIDERTINKKKLTPFTIQENLNLALNSASAIGCHVVNIGAEDLKEGKPYLVLGLLWQVIKIGLFADIELSRNEALIALLREGESLEDLMKLSPEELLLRWANYHLENAGCNKIGNFSTDIKDSKAYYHLLEQVAPKGDEEGVPAVVIDMSGLREKDDIQRAECMLQQAERLGCRQFVTATDVVRGNPKLNLAFIANLFNRYPALHKPENQDIDWGALEGETREERTFRNWMNSLGVNPRVNHLYSDLSDALVIFQLYEKIKVPVDWNRVNKPPYPKLGGNMKKLENCNYAVELGKNQAKFSLVGIGGQDLNEGNRTLTLALIWQLMRRYTLNILEEIGGGQKVNDDIIVNWVNETLREAKKSSSISSFKDPKISTSLPVLDLIDAIQPGSINYDLLKTENLNDDEKLNNAKYAISMARKIGARVYALPEDLVEVNPKMVMTVFACLMGKGMKRV
B3: ABD2 of PLS2, unlabeled (domain or fragment)
chain: DIDWGALEGETREERTFRNWMNSLGVNPRVNHLYSDLSDALVIFQLYEKIKVPVDWNRVNKPPYPKLGGNMKKLENCNYAVELGKNQAKFSLVGIGGQDLNEGNRTLTLALIWQLMRRYTLNILEEIGGGQKVNDDIIVNWVNETLREAKKSSSISSFKDPKISTSLPVLDLIDAIQPGSINYDLLKTENLNDDEKLNNAKYAISMARKIGARVYALPEDLVEVNPKMVMTVFACLMGKGMKRV
B4: fluorescein-labeled ABD2 of PLS2 (domain or fragment)
chain: B3 chain
modifications: fluorescein-5-maleimide (FM) label

Where two headings read alike, the source gives them in different places.

For assay [1], the target named is T2, F-actin (skeletal muscle actin) ( (rabbit or chicken skeletal …, UniProt P68135 1-377)). In words: co-sedimentation.
Assay [2] deals with T1, RD-ABD1 of PLS2. In words: fluorescence polarisation.
The target in assay [3] is T2, F-actin (skeletal muscle actin). In words: fluorescence polarisation. In general terms: In fluorescence polarisation assays a small probe gives low polarisation when free and higher when bound to something large.
The target in assay [4] is T1, RD-ABD1 of PLS2. In words: fluorescence polarisation. The source holds these as a separate data set.
Assay [5] deals with B1. Nature of the assay: fluorescence polarisation.
Assay [6] concerns the target T2, F-actin (skeletal muscle actin). In words: fluorescence polarisation. This is another data set of the same source.

The term Kd denotes the free concentration of one partner at which half of the binding sites on the other are occupied at equilibrium, for simple one-to-one binding. A low value points to tighter binding. With B1, the Kd in assay [1] was 2600 ± 1000 nM.

In assay [1], B2 came in with a dissociation constant (Kd) of 5700 ± 1000 nM.

For the molecule B3, the Kd in assay [2] amounted to 2.9 ± 0.5 nM; in assay [3], 3.6 ± 0.3 nM; in assay [4], 3 ± 0.9 nM; in assay [5] it was 11.4 ± 0.7 nM.

Molecule B4 gave a Kd in assay [6] of 9.9 ± 3.7 nM.
